Test results reported in patent US20230011916A1 (BEIGENE, published 2023).

T1: full-length human OX40 expressed on HuT78 cells (HuT78/OX40) (human, UniProt P43489 29-277)
T1 sequence: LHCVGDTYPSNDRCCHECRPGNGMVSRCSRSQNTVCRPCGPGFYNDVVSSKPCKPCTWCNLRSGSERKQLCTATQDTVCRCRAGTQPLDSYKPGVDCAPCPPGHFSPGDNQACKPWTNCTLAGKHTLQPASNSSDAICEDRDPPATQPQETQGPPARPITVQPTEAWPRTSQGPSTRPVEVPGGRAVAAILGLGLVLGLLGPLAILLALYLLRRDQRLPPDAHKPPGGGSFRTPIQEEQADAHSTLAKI

T2: recombinant OX40 protein with a His tag (Cat: 10481-H08H, Sino Biological) (UniProt P43489 29-216)
T2 construct: Bought protein; also called OX40-His (bought); not shown: His tag
T2 sequence (looked up): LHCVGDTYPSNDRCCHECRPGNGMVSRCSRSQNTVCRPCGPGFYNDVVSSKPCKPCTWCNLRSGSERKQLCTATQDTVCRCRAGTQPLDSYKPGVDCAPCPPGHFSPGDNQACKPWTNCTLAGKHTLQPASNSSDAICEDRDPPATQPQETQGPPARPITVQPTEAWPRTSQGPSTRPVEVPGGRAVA

T3: human OX40/IgG1 fusion H153A (human, UniProt P43489 29-216)
T3 construct: not shown: Fc domain of human IgG1 wild type heavy chain
T3 chain: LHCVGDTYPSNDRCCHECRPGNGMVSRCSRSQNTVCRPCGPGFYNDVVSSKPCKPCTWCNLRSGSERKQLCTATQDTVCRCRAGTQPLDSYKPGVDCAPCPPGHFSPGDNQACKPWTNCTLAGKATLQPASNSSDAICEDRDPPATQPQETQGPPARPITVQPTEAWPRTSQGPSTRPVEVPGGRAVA


Assays:
[1] = target: T1, full-length human OX40 expressed on …; experiment: FACS; cells not named on the sheet, HuT78/OX40 cells as in Example 5
[2] = target: T1, full-length human OX40 expressed on …; experiment: FACS; against 445-2
[3] = target: T2, recombinant OX40 protein with a His tag …; experiment: Biacore (SPR); antigen not named on the sheet, OX40-His as in Example 4
[4] = target: T3, human OX40/IgG1 fusion H153A; experiment: SPR, BIAcore 8K, OX40/IgG1 mutant immobilized, 445-3 Fab flowed
Experimental: Briefly, OX40 mutants and wild type OX40 were immobilized on a CM5 biosensor chip (Cat: BR100530, GE Life Sciences) using EDC and NHS. […] The changes in surface plasmon resonance signals were analyzed to calculate the association rates (ka) and dissociation rates (kd) by using the one-to-one Langmuir binding model (BIA Evaluation Software, GE Life Sciences). The equilibrium dissociation constant (KD) was calculated as the ratio kd/ka. The KD shift fold of mutant was calculated as the ratio Mutant KD/WT KD.

[5] = target: T2, recombinant OX40 protein with a His tag …; experiment: Biacore; against 445-2

EC50 [1]	Top(MFI) [1]	fold increase to the EC50 over 445-2 [2]	Kd [3]	koff [3]	kon [3]	binding result [4]	fold increase to the KD over 445-2 [5]	Binder
0.66 µg/mL	750 MFI	1.7 fold	12.9 nM	0.00574 s⁻¹	444000 M⁻¹ s⁻¹	–	–	445-2 with K28T in the heavy chain and S24R in the light chain (antibody, human IgG1, V domains shown) VH: QVQLVQSGAEVKKPGSSVKVSCKASGYTFTSYIIHWVRQAPGQGLEWMGYINPYNEGTRYAQKFQGRVTLTADKSTSTAYMELSSLRSEDTAVYYCARGYYGSSYAMDYWGQGTTVTVSS VL: DIQMTQSPSSLSASVGDRVTITCRASQGISNYLNWYQQKPGKAIKLLIYDASTLYSGVPSRFSGSGSGTDFTLTISSLQPEDFATYYCQQYSKLPYTFGGGTKVEIK
–	–	–	–	–	–	no binding	–	445-3 Fab (Fab, V domains shown) VH: QVQLVQSGAEVKKPGSSVKVSCKASGYKFTSYIIHWVRQAPGQGLEWMGYINPYNEGTRYNQKFQGRVTLTADKSTSTAYMELSSLRSEDTAVYYCARGYYGSSYAMDYWGQGTTVTVSS VL: DIQMTQSPSSLSASVGDRVTITCRASQGISNYLNWYQQKPDGAIKLLIYDASTLYSGVPSRFSGSGSGTDFTLTISSLQPEDFATYYCQQYSKLPYTFGGGTKVEIK
0.755 µg/mL	630 MFI	–	21.5 nM	0.00135 s⁻¹	62500 M⁻¹ s⁻¹	–	1.7 fold	445-2 with Y27G in the heavy chain and S24R in the light chain (antibody, human IgG1, V domains shown) VH: QVQLVQSGAEVKKPGSSVKVSCKASGGKFTSYIIHWVRQAPGQGLEWMGYINPYNEGTRYAQKFQGRVTLTADKSTSTAYMELSSLRSEDTAVYYCARGYYGSSYAMDYWGQGTTVTVSS VL: DIQMTQSPSSLSASVGDRVTITCRASQGISNYLNWYQQKPGKAIKLLIYDASTLYSGVPSRFSGSGSGTDFTLTISSLQPEDFATYYCQQYSKLPYTFGGGTKVEIK
